The values that follow come from US10227617B2, “Sequestration of carbon dioxide with hydrogen to useful products” (UNIVERSITY OF GEORGIA RESEARCH FOUNDATION, INC., priority 2012, dated 2019).

Entries after “also recorded” stand apart in the source; their conditions may differ.

One series deals with P. furiosus cultures. Kind of series: Stability of 3-HP added to P. furiosus cultures. Type of series: cell-based, Pyrococcus furiosus.
The next series has as its target T1, E9 (Metallosphaera sedula, UniProt A4YGN0).
T1 construct: expressed in transfected cells; host or cells: Pyrococcus furiosus strain MW43 (SP2B operon integrated at genome region 2); cell-free extract
T1 sequence (A4YGN0 1-360): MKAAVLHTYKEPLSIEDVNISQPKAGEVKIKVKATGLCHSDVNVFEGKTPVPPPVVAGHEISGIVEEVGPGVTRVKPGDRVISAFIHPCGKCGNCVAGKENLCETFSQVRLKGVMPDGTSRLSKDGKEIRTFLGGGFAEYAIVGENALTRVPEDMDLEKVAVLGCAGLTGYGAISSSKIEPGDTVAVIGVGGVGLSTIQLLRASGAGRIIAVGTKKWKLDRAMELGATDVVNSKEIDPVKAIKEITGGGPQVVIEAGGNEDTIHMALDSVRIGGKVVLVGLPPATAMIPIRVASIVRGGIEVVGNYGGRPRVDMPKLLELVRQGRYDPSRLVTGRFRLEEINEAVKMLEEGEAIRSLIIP
The series is described as follows: NADPH-dependent assay for E9 in cell-free extracts. Format: biochemical. As to the method:
NADPH-dependent assay for E9 of the SP2B subpathway (FIG. 36). Assays were carried out in sealed anaerobic cuvettes at 75° C. containing 100 mM MOPS pH 7.5 (measured at room temperature), 5 mM MgCl2, 5 mM DTT, 1 mM NADPH and the cell-free extract of P. furiosus (0.25 mg/ml). After addition of 1 mM succinic semialdehyde, NADPH oxidation was determined by the absorbance at 340 nm and rates were calculated based on the difference before and after the addition of the succinic semialdehyde.

Series [1] is described as follows: 4-hydroxybutyrate-CoA synthetase assay (DTNB; HPLC confirmation). Format: biochemical. As to the method:
A time point (0 min) was taken before heating.
The soluble, heat-treated lysate was loaded onto the column with binding buffer (50 mM sodium phosphate, 300 mM NaCl, 20 mM imidazole, pH 7.4) and the his-tagged enzyme removed with elution buffer (50 mM sodium phosphate, 300 mM NaCl, 500 mM imidazole, pH 7.4).

Series [2] can be described thus: CoA synthetase assay (DTNB), substrate propionate. Format: biochemical. To be noted: saturating substrate concentrations.
Experimental: (§2) Two assays were used to measure ligase activity, one spectrophotometric and one using high-performance liquid chromatography (HPLC). A discontinuous assay was used to measure substrate-dependent disappearance of CoA at 75° C. The reaction mixture (600 μl) contained 100 mM MOPS-KOH (pH 7.9), 5 mM MgCl2, 2.5 mM ATP, 0.15 mM CoA, and purified enzyme. At each time point, 80 μl of reaction mixture was added to 80 μl cold 5,5′-dithiobis-(2-nitrobenzoic acid) (DTNB). A time point (0 min) was taken before heating. The reaction mixture was incubated for 2 min at 75° C., followed by addition of substrate. Additional time points were taken at 30, 60, 90, 120, and 180 sec after addition of substrate. Absorbance was measured at 412 nm to determine free CoA concentration, based on the concentration of 2-nitro-5-thiobenzoate dianion (NTB^2−) (ε412=14,150 M^−1 cm^−1) (Hawkins et al., 2011, ACS Catal. 1, 1043-1050, Riddles et al., 1983, Methods in Enzymology 91, 49-60). Enzymes were kinetically characterized by varying the concentration of the acyl-CoA substrate from 0.05 mM to 12 mM, while the other substrate concentrations were held constant. Measurements for specific activity were taken under saturating substrate concentrations (10 mM). Formation of the CoA ester was also confirmed using HPLC (Waters). […]
Series [3] in a line: CoA synthetase (acyl-CoA ligase) assay, disappearance of CoA (DTNB), substrate acetate. Type of series: biochemical. To be noted: saturating substrate concentrations.
Experimental: as §2
Series [4] in a line: Ligase activity over a range of short-chain linear organic acids. Format: biochemical. How it is done: (§1) Two assays were used to measure ligase activity, one spectrophotometric and one using high-performance liquid chromatography (HPLC). A discontinuous assay was used to measure substrate-dependent disappearance of CoA at 75° C. The reaction mixture (600 μl) contained 100 mM MOPS-KOH (pH 7.9), 5 mM MgCl2, 2.5 mM ATP, 0.15 mM CoA, and purified enzyme. At each time point, 80 μl of reaction mixture was added to 80 μl cold 5,5′-dithiobis-(2-nitrobenzoic acid) (DTNB). A time point (0 min) was taken before heating. The reaction mixture was incubated for 2 min at 75° C., followed by addition of substrate. Additional time points were taken at 30, 60, 90, 120, and 180 sec after addition of substrate. Absorbance was measured at 412 nm to determine free CoA concentration, based on the concentration of 2-nitro-5-thiobenzoate dianion (NTB^2−) (ε412=14,150 M^−1 cm^−1) (Hawkins et al., 2011, ACS Catal. 1, 1043-1050, Riddles et al., 1983, Methods in Enzymology 91, 49-60). Enzymes were kinetically characterized by varying the concentration of the […] substrate from 0.05 mM to 12 mM, while the other substrate concentrations were held constant. Measurements for specific activity were taken under saturating substrate concentrations (10 mM). Formation of the CoA ester was also confirmed using HPLC (Waters). […]

Series [5] can be described thus: CoA synthetase assay, substrate hexanoic acid. Type of series: biochemical. The following applies: six carbon hexanoic acid. How it is done:
as §1

`O=C(O)CCO` [3-HP, 3-hydroxypropionic acid]: the “stability when added to P. furiosus cultures” value in the series with P. furiosus cultures was “stable”.

B1: E9: M. sedula succinate semialdehyde reductase, SEQ ID NO:12, in extracts of strain MW43 (protein, listed as Metallosphaera sedula)
chain: T1 sequence (A4YGN0 1-360)
As for B1, the “half-life of E9” value in the series with E9 (at 90° C, cell-free extracts) is about 30 min. Also, in the series with E9 (cell extracts), the “assay temperature of maximum E9 activity” value is “above 80 °C”.

B2: Msed_1353-G424: single substitution mutant (Trp424 to Gly) of acetate/propionate synthetase Msed_1353, SEQ ID NO:18 (protein, listed as Metallosphaera sedula)
chain: MSQPENESGLPFQEKVVPELLKHRLVTPEEYLRIHKKTVENYQEYWESVAKELDWFKPWEKALDDSHPPFYKWFVGGELNASYLAVDRHANSWRRNKVAIIWEGEPWENGPKEVRKLTYLDLYREVNRAAYLLKEVYGLKKGDTIGIYLPMIPELPIFMLAAARLGVAFTVVFSGFSAQAVADRMNDADTKLLITADGGWRRGKVIPLKEIVDKALETATTVKNVLVVRRTGTEISMKPGRDAYLHDVMSKVPIKAYVEPERVKSEDPLYILYTSGTTGKPKGIIHDTGGYMTLLHNTMKLVFDIRDTDVFWCTADIGWVTGHSYIVFGPLQEGATEVMYEGALDFPEPDRWVSIIERHQVSILYTSPTAIRTFMKQGEQWIKKHDVSSVRLMHSVGEPINPEAWRWFHKLVGRGQVPFGSTWGMTETGGIMISHMPGGYLVPMKPGTNGPPLLGIETNVFDEEGKPMPEEQKGYLVITKPWPGMPLTINKDPERYVKVYWNKFPNVFYAGDYAIKDRDGYFWILGRADEVMKIAGHRIGTYELESALVQHPAIAEAAVVGVPDPVRGEVAEAFVILRSGVEPSAKLREEIVKFVRENFGPIAVFREIHFVSKLPKTRSGKIMRRVIKAVATNSPVGDVTTLEDEASVEEVKKAFQELKEQVGK
Take B2: the specific activity in series [1] (4HB, saturating substrate concentrations) was 1.8 µmol/min/mg; in series [2], 3.5 µmol/min/mg; in series [3], 3.6 µmol/min/mg. The “substrates on which activity was shown” value in series [4] is “activity on C4-C8 substrates; also recorded: activity on 3HP, 4HB, valerate, hexanoate, and even octanoate”. In addition, the “decrease of activity of mutant versus native enzyme” value in series [4] (on acetate and propionate) was 60%.

B3: Msed_0394: recombinant M. sedula enzyme with 4-hydroxybutyrate:CoA ligase activity, annotated AMP-dependent synthetase and ligase, SEQ ID NO:13 (protein, listed as Metallosphaera sedula)
chain: MGGFKIPNYEGVDPTGSWYSVLTPLLFLERAGKYFKDKTAVVYRDSRYTYSTFYDNVMVQASALMRRGFSREDKLSFISRNRPEFLESFFGVPYAGGVLVPINFRLSPKEMAYIINHSDSKFVVVDEPYLNSLLEVKDQIKAEIILLEDPDNPSASETARKEVRMTYRELVKGGSRDPLPIPAKEEYSMITLYYTSGTTGLPKGVMHHHRGAFLNAMAEVLEHQMDLNSVYLWTLPMFHAASWGFSWATVAVGATNVCLDKVDYPLIYRLVEKERVTHMCAAPTVYVNLADYMKRNNLKFSNRVHMLVAGAAPAPATLKAMQEIGGYMCHVYGLTETYGPHSICEWRREWDSLPLEEQAKLKARQGIPYVSFEMDVFDANGKPVPWDGKTIGEVVMRGHNVALGYYKNPEKTAESFRDGWFHSGDAAVVHPDGYIEIVDRFKDLINTGGEKVSSILVEKTLMEIPGVKAVAVYGTPDEKWGEVVTARIELQEGVKLTEEEVIKFCKERLAHFECPKIVEFGPIPMTATGKMQKYVLRNEAKAKANKEKS
For the molecule B3, in series [1] (reversed-phase HPLC), the “production of 4HB-CoA from 4HB and CoA” value is recorded as “confirmed”. Further, the “rate of ligation of CoA to 4HB” value in series [1] (substrate 4HB) is 0.22 µmol·min/mg. Further, in series [5], the “activity with hexanoic acid” value is “No activity”.
